The values that follow come from paper PMC5364394.

In this data set the target is FLAG-SF2/ASF purified (human, UniProt Q07955 1-248). Briefly: EMSA. Particulars: protein: recombinant; tags: FLAG; label: IRDye-800.
Sequence of FLAG-SF2/ASF purified (Q07955 whole entry): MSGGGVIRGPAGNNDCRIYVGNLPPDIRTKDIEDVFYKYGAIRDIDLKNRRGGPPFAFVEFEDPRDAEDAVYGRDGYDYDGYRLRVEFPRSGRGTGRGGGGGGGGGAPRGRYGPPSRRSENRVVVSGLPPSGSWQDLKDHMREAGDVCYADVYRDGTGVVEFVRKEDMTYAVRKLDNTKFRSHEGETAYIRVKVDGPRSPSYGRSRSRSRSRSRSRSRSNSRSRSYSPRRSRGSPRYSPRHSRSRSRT

GACAUACUGACAAGGAUGUC (ssRNA) [H7N9-NS-529-548 (NEP-ESE, 540A, WT)]: the binding result was “binds”.
